Data reported in the supplement of paper PMC12764529.
± gives the half width of the 95% confidence interval.

Columns and labels:
[1] = folding stability dG unfold from chymotrypsin proteolysis; higher = more stable
How it was run: (§1)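 Bayesian fitting of sequencing counts gave K50 for each design. Unfolding free energy followed by setting this against a sequence-predicted unfolded-state K50 and a shared folded-state K50, either per protease or with trypsin and chymotrypsin combined. The designs, under 80 residues and lacking cysteine, were digested in a PA-tagged cDNA display format at 11 threefold-diluted protease concentrations and without protease, and only those with AlphaFold2 dimer inter-PAE above 15 were kept.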

[2] = folding stability dG unfold from trypsin proteolysis; higher = more stable
How it was run: as §1

[3] = folding stability dG unfold (combined trypsin and chymotrypsin); higher = more stable
How it was run: as §1

Sequence | folding stability dG unfold [1] | folding stability dG unfold [2] | folding stability dG unfold [3]
SAGGSAGGSLEKIKEALKKAGYPPENVVIEVKTLPNGEIVITVKYNGKEIPKEIVEEAIKKLKSAGGSAGGS [r12_175_JUSTAS] | 3.72 ± 0.08 kcal/mol | 2.69 ± 0.081 kcal/mol | 3.45 ± 0.066 kcal/mol
KIEIVEIKKENGKITIKVKNPIPNAKLIIYLFNPKGEIVSAKTHPGPEVELEIEVPENESFSVLVKLFPPKS [r1_382_TrMRF] | 4.24 ± 0.083 kcal/mol | 3.35 ± 0.12 kcal/mol | 3.99 ± 0.14 kcal/mol
SAGGLENLENFELVETLTVKLPNGDKPVTLTLYRHPDGPAENVTSYEGKKYVFVVTDDSIEFFEGGTSAGGS [r16_711_TrMRF] | 1.24 ± 0.16 kcal/mol | 0.0263 ± 0.044 kcal/mol | 0.81 ± 0.15 kcal/mol
SAGGEKVKLRIYVYRRTVERDPATGELRERYELVEEIEIEVEPGETLEDILAKLKLPPGWRIVRVERESAGG [r13_716_TrROS_Hall] | 5.424 ± 0.053 kcal/mol | 4.39 ± 0.091 kcal/mol | 5.24 ± 0.076 kcal/mol
SAGGSAGGSAGGAPLVEVEEVETRRVKDPATKRWYRRTRVRVRNKETGEWYELEFVEPLSAGGSAGGSAGGS [r10_535_TrROS_Hall] | 2.599 ± 0.02 kcal/mol | 2.49 ± 0.025 kcal/mol | 2.54 ± 0.048 kcal/mol
SAMPLEDMTPEQAEEFAKEFINRFQQENQKKGGPIPPGQEIEIPVRYKGGPVYIKITVTNPGNINIEVESAG [r14_501_TrROS] | 0.708 ± 0.095 kcal/mol | 0.448 ± 0.048 kcal/mol | 0.663 ± 0.13 kcal/mol
SAGGSAGGSGDKDEVDPNKNISPIPPVKATIFPPDGTPRTVTFTSEEELKAYAEARGWTIEVPSAGGSAGGS [r12_244_JUSTAS] | 0.231 ± 0.29 kcal/mol | 0.000698 ± 0.12 kcal/mol | 0.318 ± 0.23 kcal/mol
SAGGSADPDDKEQKIKVEIETYRLEDNGMEVTRIELEGHGMPIYIARFPDGRMFIFTANGELEQIPSAGGSA [r15_617_TrROS] | 2.71 ± 0.059 kcal/mol | 1.97 ± 0.14 kcal/mol | 2.41 ± 0.16 kcal/mol
SAGGSAGGSPANIKITTTLDTETGYLTIVAYNPATGKVTVLTAKIYGNVPHIDGLEALFGALGSAGGSAGGS [r20_131_TrMRF] | 3.02 ± 0.078 kcal/mol | 2.07 ± 0.086 kcal/mol | 2.7 ± 0.18 kcal/mol
SAGGSAGGSAMRLEIELENGLKIEIELEVNEDGELKMKIKIEPLPPVPEVVVTKVVKLEEESAGGSAGGSAG [r3_15_TrROS_Hall] | 1.69 ± 0.12 kcal/mol | 1.72 ± 0.29 kcal/mol | 1.98 ± 0.39 kcal/mol
SAGGSAGGSADGNTPVEVTITLTDPKTGAVTTVPVVLPTSVSVEEVAAELAAKFGLTTVTVTSAGGSAGGSA [r18_58_JUSTAS] | 0.521 ± 0.04 kcal/mol | 1.06 ± 0.027 kcal/mol | 0.864 ± 0.037 kcal/mol
SAGSASSIKPISSTLDVRTDPETGKPVKATVYTYVLPSDGSSKQVPVPLSKKEPINLSPSDSYVTETRESAG [r5_950_JUSTAS] | -0.274 ± 0.27 kcal/mol | -0.586 ± 0.17 kcal/mol | -0.361 ± 0.22 kcal/mol
SAGGMKITTKDGSTITVETEPGKVTITIKPPGDGSTTTLPFPAPSEEEGIEAAIKKIEEEGNVEEIELSAGG [r13_579_JUSTAS] | 0.591 ± 0.1 kcal/mol | 0.064 ± 0.1 kcal/mol | 0.491 ± 0.3 kcal/mol
SAGGSAGGRLLLVKITLPDGEEITIVLEFESEEEARAAAEALLPPGAKVEVRELSEEELEALLKSAGGSAGG [r6_267_TrROS_Hall] | 3.37 ± 0.044 kcal/mol | 3.09 ± 0.049 kcal/mol | 3.31 ± 0.052 kcal/mol
SAGGGDWYKVTVKVDGNPEVAEALVEKLLEEVGEEVVFEPRPGEQTVTFYVPKELLPLLEELGIEVEPSAGG [r13_156_TrMRF] | 2.632 ± 0.02 kcal/mol | 2.24 ± 0.11 kcal/mol | 2.56 ± 0.13 kcal/mol
SAMVLRIKVEVNGETKEIEIELPPNAKIEKKDGELTIYVKNPETGKIFKFKFKKNAKIVEVEEVDPEDLSAG [r14_313_TrROS_Hall] | 4.22 ± 0.052 kcal/mol | 2.6 ± 0.046 kcal/mol | 3.83 ± 0.1 kcal/mol
SAGGSAGGTIPSDYSVKELKVGGKKYVIVRYPDGIVELYSVEGNKKTLLRTVDTDPNASVSISGSAGGSAGG [r6_476_JUSTAS] | 2.67 ± 0.04 kcal/mol | 1.73 ± 0.044 kcal/mol | 2.38 ± 0.097 kcal/mol
SAGGSAGGSAGGGRVELELTFIREDGYAVKVRIEVDEDGNLRIEVEVVKLPPAASPEELSAGGSAGGSAGGS [r10_878_TrROS_Hall] | 2.31 ± 0.072 kcal/mol | 3.23 ± 0.14 kcal/mol | 2.86 ± 0.088 kcal/mol
SAGGSAGGSAGMRTVEVKVVFKEGDKEFEKTITITLSPDDPSLEERAKEIAEKGIVVEIIRSAGGSAGGSAG [r3_30_JUSTAS] | 1.99 ± 0.12 kcal/mol | 1.62 ± 0.055 kcal/mol | 1.75 ± 0.15 kcal/mol
SAGGDVTISIMIFVWPGWTEEQYKEMAKEVAKTIARQLAQKNPDLNENIDIEDIEVTIIPMEGDPDYFSAGG [r13_128_TrROS] | 1.35 ± 0.1 kcal/mol | 1.91 ± 0.049 kcal/mol | 1.68 ± 0.19 kcal/mol
SAGGSAGGSAGGSDTPGNYKKVKITLKRVTLGDNNTPKVETVELEVTVPPNYTLEDVLSSAGGSAGGSAGGS [r4_283_TrMRF] | 1.1 ± 0.14 kcal/mol | 0.976 ± 0.072 kcal/mol | 1.14 ± 0.16 kcal/mol
